The values that follow come from PMC12089286, “LLPS REDIFINE allows the biophysical characterization of multicomponent condensates without tags or labels”.

The target in data set [1] is T1, PTBP1 (UniProt P26599 1-557). Nature of the data set: NMR diffusion (REDIFINE); 1:1 soluble complex; koff 1.41 s-1, kon 3e6 M-1 s-1; 10 mM phosphate pH 6.5, 20 mM NaCl; EMSA: 20 mM HEPES pH 8.0, 100 mM KCl, 1.5 mM MgCl2, 10% glycerol, 0.5 mM DTT, native 10% TBE gel; NMR: PTBP1 in 10 mM sodium phosphate pH 6.5, 20 mM NaCl; Nu in 20 mM sodium phosphate pH 6.0, 50 mM NaCl; 298 K. The settings on record: protein: recombinant; tags: pET28a; label: 5'-32P (EMSA); none (NMR); single-stranded.

Data set [2] deals with T1, PTBP1. Nature of the data set: EMSA; 1.5 mM Mg2+, 100 mM KCl, pH 8.0; EMSA: 20 mM HEPES pH 8.0, 100 mM KCl, 1.5 mM MgCl2, 10% glycerol, 0.5 mM DTT, native 10% TBE gel; NMR: PTBP1 in 10 mM sodium phosphate pH 6.5, 20 mM NaCl; Nu in 20 mM sodium phosphate pH 6.0, 50 mM NaCl; 298 K. The settings on record: protein: recombinant; tags: pET28a; label: 5'-32P (EMSA); none (NMR); single-stranded. (In general: In EMSA bound probe runs differently from free probe, usually more slowly.)

Data set [3] deals with Nu(247-419) (SARS-CoV-2, UniProt P0DTC9 247-419). The data set is described as follows: NMR (1D, DOSY). Particulars: protein: recombinant; chain copies: 2; label: none (NMR); 3' Cy5 (microscopy); hairpin.

A word on the Kd: it is the concentration at which binding is half-saturated. Consider GGGAGAUCUCUAAAAAUCUCUAAAAAUCUCUAAAAA (ssRNA) [3xUCUCU RNA], for which the figures for the Kd in data set [1] and in data set [2] were 500 ± 100 nM and 490 ± 20 nM, respectively. On to GGUUCACCGAGGCCACGCGGAGUACGAUCGAGUGUACAGUGAACC (structured_RNA) [s2m RNA], for which, in data set [3], the binding result is on record as “binds”.
